From patent US5847083, “Modified p53 constructs which enhance DNA binding” (The Wistar Institute of Anatomy and Biology)

B1: oligonucleotide Egadd45 (dsDNA)
DNA 1: ACAGAACATGTCTAAGCATGCTGGGGA
DNA 2: TCCCCAGCATGCTTAGACATGTTCTGT
B2: oligonucleotide BC (dsDNA)
DNA 1: CCGGGCATGTCCGGGCATGTCCGGGCATGT
DNA 2: ACATGCCCGGACATGCCCGGACATGCCCGG
B3: oligonucleotide Ep21 (dsDNA)
DNA 1: CCCGAACATGTCCCAACATGTTGGGG
DNA 2: CCCCAACATGTTGGGACATGTTCGGG

Columns and labels:
Conditions in all cases: chain copies: 4; label: 32P
[1] = molecular target: T1, p53 Arg284 delta364-393 (Homo sapiens, UniProt P04637 SEQ:1-363); assay: EMSA; enhancement not noted on this site
Procedure: (§1) For analysis of DNA binding activity, these proteins were incubated with ^32P-labeled oligonucleotides and subjected to electrophoresis as described [Halazonetis (1993a and 1993b) and Waterman (1995), both cited above]. […] CCC-GAACA-TGTCC-CAACA-TGTTG-GGG, each contain a p53 binding site, which is underlined. […] Oligonucleotide Egadd45has the sequence [SEQ ID NO: 31] ACA-GAACA-TGTCT-AAGCA-TGCTG-GGGA. Oligonucleotide TF3, which contains three tandem repeats of [SEQ ID NO: 32] […], is a non-specific DNA [Halazonetis et al, *EMBO J.*, 12:1021–1028 (1993)].
(§2) Figure 4: FIG. 4 illustrates the effect of the Thr284 to Arg substitution on binding of wild-type p53 and tumor-derived p53 mutants to a high affinity DNA site, and to the sites in the p21^cip1 and gadd45 genes (oligonucleotides BC, Ep21 and Egadd45, respectively). Binding was assayed by gel retardation shift analysis on native electrophoretic gels. Only the region of the gel corresponding to the p53-DNA complexes is shown. The amino acids are abbreviated using the single letter code: Arg, R; Cys, C; Gln, Q; His, H; Lys, K.

[2] = molecular target: p53 delta364-393 (Homo sapiens, UniProt P04637 SEQ:1-363); assay: EMSA
Procedure: as §1, §2

[3] = molecular target: p53 Ser249 (Homo sapiens, UniProt P04637 SEQ:1-393); assay: EMSA; not activated by PAb421
Procedure: as §1

[4] = molecular target: T1, p53 Arg284 delta364-393; assay: EMSA; enhanced vs wild type
Procedure: as §1, §2

Binder	binding result [1]	binding result [2]	binding result [3]	binding result [4]
B1	binds	binds		
B2			no binding	binds
B3				binds
